Assay [1] deals with T1, amyloid peptide AβpE3-42 (UniProt P05067 674-713, N-terminal pyroglutamate (pE) at Aβ position 3).
T1 construct: domain: AβpE3-42; Bought synthetic peptide; also called AβpGlu3-42; Aβ(Glp3)3-42
In words: ELISA, plate coated with AβpE3-42, antibody titrated, A650nm. The method, then:
(§1) Each well of a […] MaxiSorp plate (Nunc) was coated with 50 μL aliquots of 200 ng/mL of 1-42, pE3-42 or 4-42 amyloid peptides in PBS and incubated overnight at 4° C. The wells were washed 3× with PBS-T (0.1% Tween20) and blocked with 150 μL of 5% milk in PBS/0.05% Tween20 per well. The wells were then incubated at RT with shaking for 1 hour and washed 3× with PBS-T (0.1% Tween20). 50 μl of primary antibody serially diluted in 1% milk PBS/0.05% Tween20 was added to the wells of the assay plate using a 3-fold dilution series starting from ˜100 μg/mL. The incubation and washing step was then repeated. Anti-human kappa chain HRP (Sigma A7164-1 mL) was diluted 4,000-fold in PBS/1% milk/0.05% Tween20 and 50 μl added to each well. The incubation and washing step was repeated and then 75 μL of K-Blue substrate (Neogen) was added per well and incubated for 5-10 minutes at RT. The reaction was stopped by adding 50 μl of RED STOP solution (Neogen) to each well and the optical density was read at 650 nm.

For assay [2], the target named is T1, amyloid peptide AβpE3-42. Described as above. The method, then:
as §1
The source holds these as a separate data set.

Another assay deals with T2, amyloid peptide Aβ4-42 (UniProt P05067 675-713).
T2 construct: domain: Aβ4-42; Bought synthetic peptide; also called Anaspec Aβ4-42
Briefly: ELISA, plate coated with Aβ4-42 from PSL, antibody titrated, A650nm.

In assay [3] the target is T1, amyloid peptide AβpE3-42. Briefly: ELISA, plate coated with AβpE3-42 from PSL, antibody titrated, A650nm.
For assay [4], the target named is T1, amyloid peptide AβpE3-42. The description is as above. The method, then: as §1
This is another data set of the same source.

Assay [5] concerns the target T1, amyloid peptide AβpE3-42. Briefly: ELISA, plate coated with AβpE3-42 (target by legend paragraph 24), antibody titrated, A650nm. As to the method:
as §1

Assay [6] has as its target T1, amyloid peptide AβpE3-42. Briefly: ELISA, plate coated with AβpE3-42 from California peptides (Cal Hu), antibody titrated, A650nm.
Assay [7] addresses T1, amyloid peptide AβpE3-42. Briefly: ELISA, plate coated with AβpE3-42, antibody titrated, blank-subtracted OD650. The method, then: as §1
Therefore, F67Y, Y68N, I39W and an additional variant that combined F67Y and Y68N were generated (Table 2) and binding to Aβ1-42, AβpE3-42 and 4-42 was investigated. […] Five additional variants of the heavy chain were generated with the following mutations, S53M, S53H, R100H, L103R and L103H (Table 4b). In addition, five variants of the light chain were also generated RKF (N92W), RKG (N92Y), RKH (N92H), RKI (L94R) and RIC (L94H).

Assay [8] deals with T1, amyloid peptide AβpE3-42. In words: ELISA, plate coated with AβpE3-42, antibody titrated, signal as % Max. As to the method:
as §1

For assay [9], the target named is T1, amyloid peptide AβpE3-42. In words: ELISA, plate coated with AβpE3-42 (PSL), antibody titrated, blank-subtracted OD650. As to the method: as §1

We go through 14 molecules from patent US20210347867A1 (GEORG AUGUST UNIVERSIT T G TTINGEN STIFTUNG FFENTLICHEN …, published 2021).

Where two headings read alike, the source gives them in different places.

T1 sequence (P05067 674-713 limits assumed): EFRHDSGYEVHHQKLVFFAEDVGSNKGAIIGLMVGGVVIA
T2 sequence (P05067 675-713 limits assumed): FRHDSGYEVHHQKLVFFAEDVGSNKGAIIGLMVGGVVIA

B1: murine NT4X-167 antibody (antibody, V domains shown)
VH: QVQLKQSGPGLVQPSQSLSITCTVSGFSLTSYGIHWVRQSPGKGLEWLGVMWSGGITDFYAAFISRLSISRDISKSQVFFKMNSLQADDTAIYYCARGSRYALDYWGQGTSVSVSS
VL: DIQMTQTTSSLSASLGDRVTISCRASQDISNYLNWYQQKPDGTVKLLIYYTSRLHSGVPSRFSGSGSGTDYSLTISNLEQEDIATYFCQQGNTLPPTFGGGTKLEIK
notes: Mouse hybridoma antibody; also called original mouse NT4X antibody
On to B1, for which the “EC50 (read off the curve)” value with amyloid peptide AβpE3-42 [1] and with amyloid peptide AβpE3-42 [2] was about 0.5 µg/mL in each case. Further, in the assay with amyloid peptide Aβ4-42, the binding result is “binds”. In addition, the EC50 in the assay with amyloid peptide AβpE3-42 [3] stood at 24.9 nM; with amyloid peptide AβpE3-42 [4], 24.9 nM; with amyloid peptide AβpE3-42 [5], 2.4 µg/mL; in the assay with amyloid peptide AβpE3-42 [6], 15.7 nM.

B2: (rcNT4X_S6A) R1 (antibody, V domains shown)
VH: QVQLQESGPGLVKPSETLSLTCTVSGFSLSSYGISWIRQPPGKGLEWIGVMWSGGITDFYAAFISRVTISRDTSKNQVSLKLSSVTAADTAVYYCARGSRYALDYWGQGTLVTVSS
VL: DIQMTQSPSSLSASVGDRVTITCRASQDISNYLNWYQQKPGKAPKLLIYYTSRLHSGVPSRFSGSGSGTDFTLTISSLQPEDFATYYCQQGNTLPPTFGGGTKLEIK
notes: also called RHS6/RKA
With B2, the binding result with amyloid peptide AβpE3-42 [7] is “no binding (tested: about 120 ug/ml)”.

B3: humanized NT4X-167 RHO/RKA (antibody, mouse IgG1, V domains shown)
VH: QVQLQESGPGLVKPSETLSLTCTVSGFSLTSYGIHWIRQPPGKGLEWLGVMWSGGITDFYAAFISRVTISRDTSKNQVSLKMSSVTAADTAVYYCARGSRYALDYWGQGTLVTVSS
VL: DIQMTQSPSSLSASVGDRVTITCRASQDISNYLNWYQQKPGKAPKLLIYYTSRLHSGVPSRFSGSGSGTDFTLTISSLQPEDFATYYCQQGNTLPPTFGGGTKLEIK
Turning to B3, the binding result with amyloid peptide AβpE3-42 [1] is “binds”.

B4: (rcNT4X_S8A) R1 (antibody, V domains shown)
VH: QVQLQESGPGLVKPSETLSLTCTVSGFSLSSYGISWIRQPPGKGLEWIGVMWSGGITNFYPSLKSRVTISRDTSKNQVSLKLSSVTAADTAVYYCARGSRYALDYWGQGTLVTVSS
VL: DIQMTQSPSSLSASVGDRVTITCRASQDISNYLNWYQQKPGKAPKLLIYYTSRLHSGVPSRFSGSGSGTDFTLTISSLQPEDFATYYCQQGNTLPPTFGGGTKLEIK
notes: also called RHS8/RKA
Turning to B4, the binding result in the assay with amyloid peptide AβpE3-42 [7] is on record as “no binding (tested: about 120 ug/ml)”.

B5: humanized NT4X-167 RHM/RKA (antibody, mouse IgG1, V domains shown)
VH: QVQLQESGPGLVKPSETLSLTCTVSGFSLSSYGIHWIRQPPGKGLEWLGVMWSGGITDFYAAFISRLTISRDTSKNQVSLKMSSVTAADTAVYYCARGSRYALDYWGQGTLVTVSS
VL: DIQMTQSPSSLSASVGDRVTITCRASQDISNYLNWYQQKPGKAPKLLIYYTSRLHSGVPSRFSGSGSGTDFTLTISSLQPEDFATYYCQQGNTLPPTFGGGTKLEIK
Take B5: the binding result with amyloid peptide AβpE3-42 [1] is “binds”.

B6: humanized NT4X-167 RHL/RKA (antibody, mouse IgG1, V domains shown)
VH: QVQLQESGPGLVKPSETLSLTCTVSGFSITSYGIHWIRQPPGKGLEWLGVMWSGGITDFYAAFISRLTISRDTSKNQVSLKMSSVTAADTAVYYCARGSRYALDYWGQGTLVTVSS
VL: DIQMTQSPSSLSASVGDRVTITCRASQDISNYLNWYQQKPGKAPKLLIYYTSRLHSGVPSRFSGSGSGTDFTLTISSLQPEDFATYYCQQGNTLPPTFGGGTKLEIK
Turning to B6, in the assay with amyloid peptide AβpE3-42 [1], the binding result is given as “binds”.

B7: humanized NT4X-167 RHN/RKA (antibody, mouse IgG1, V domains shown)
VH: QVQLQESGPGLVKPSETLSLTCTVSGFSLTSYGIHWIRQPPGKGLEWIGVMWSGGITDFYAAFISRLTISRDTSKNQVSLKMSSVTAADTAVYYCARGSRYALDYWGQGTLVTVSS
VL: DIQMTQSPSSLSASVGDRVTITCRASQDISNYLNWYQQKPGKAPKLLIYYTSRLHSGVPSRFSGSGSGTDFTLTISSLQPEDFATYYCQQGNTLPPTFGGGTKLEIK
As to B7, in the assay with amyloid peptide AβpE3-42 [1], the binding result is recorded as “binds”.

B8: humanized NT4X-167 RHB/RKB (antibody, mouse IgG1, V domains shown)
VH: QVQLQESGPGLVKPSETLSLTCTVSGFSLTSYGIHWIRQPPGKGLEWLGVMWSGGITDFYAAFISRLTISRDTSKNQVSLKMSSVTAADTAVYYCARGSRYALDYWGQGTLVTVSS
VL: DIQMTQSPSSLSASVGDRVTITCRASQDISNYLNWYQQKPGGAPKLLIYYTSRLHSGVPSRFSGSGSGTDYTLTISSLQPEDFATYFCQQGNTLPPTFGGGTKLEIK
notes: also called HB/KB
As for B8, the EC50 is 0.377 µg/mL with amyloid peptide AβpE3-42 [8] and 2.74 µg/mL with amyloid peptide AβpE3-42 [5].

B9: humanized NT4X-167 RHP/RKA (antibody, mouse IgG1, V domains shown)
VH: QVQLQESGPGLVKPSETLSLTCTVSGFSLTSYGIHWIRQPPGKGLEWLGVMWSGGITDFYAAFISRLTISVDTSKNQVSLKMSSVTAADTAVYYCARGSRYALDYWGQGTLVTVSS
VL: DIQMTQSPSSLSASVGDRVTITCRASQDISNYLNWYQQKPGKAPKLLIYYTSRLHSGVPSRFSGSGSGTDFTLTISSLQPEDFATYYCQQGNTLPPTFGGGTKLEIK
As for B9, in the assay with amyloid peptide AβpE3-42 [1], the binding result is recorded as “binds”.

B10: humanized NT4X-167 RHR/RKA (antibody, mouse IgG1, V domains shown)
VH: QVQLQESGPGLVKPSETLSLTCTVSGFSLTSYGIHWIRQPPGKGLEWLGVMWSGGITDFYAAFISRLTISRDTSKNQVSLKLSSVTAADTAVYYCARGSRYALDYWGQGTLVTVSS
VL: DIQMTQSPSSLSASVGDRVTITCRASQDISNYLNWYQQKPGKAPKLLIYYTSRLHSGVPSRFSGSGSGTDFTLTISSLQPEDFATYYCQQGNTLPPTFGGGTKLEIK
In the case of B10, in the assay with amyloid peptide AβpE3-42 [1], the binding result was “binds”.

B11: humanized NT4X-167 RHT/RKA (antibody, mouse IgG1, V domains shown)
VH: QVQLQESGPGLVKPSETLSLTCTVSGFSLTSYGIHWIRQPPGKGLEWIGVMWSGGITDFYAAFISRVTISRDTSKNQVSLKLSSVTAADTAVYYCARGSRYALDYWGQGTLVTVSS
VL: DIQMTQSPSSLSASVGDRVTITCRASQDISNYLNWYQQKPGKAPKLLIYYTSRLHSGVPSRFSGSGSGTDFTLTISSLQPEDFATYYCQQGNTLPPTFGGGTKLEIK
notes: also called TA
With B11, in the assay with amyloid peptide AβpE3-42 [9], the binding result is recorded as “binds”.

B12: humanized NT4X-167 RHQ/RKA (antibody, mouse IgG1, V domains shown)
VH: QVQLQESGPGLVKPSETLSLTCTVSGFSLTSYGIHWIRQPPGKGLEWLGVMWSGGITDFYAAFISRLTISRDTSKNQFSLKMSSVTAADTAVYYCARGSRYALDYWGQGTLVTVSS
VL: DIQMTQSPSSLSASVGDRVTITCRASQDISNYLNWYQQKPGKAPKLLIYYTSRLHSGVPSRFSGSGSGTDFTLTISSLQPEDFATYYCQQGNTLPPTFGGGTKLEIK
Take B12: the binding result with amyloid peptide AβpE3-42 [1] is reported as “binds”.

B13: humanized NT4X-167 RHB/RKA (antibody, mouse IgG1, V domains shown)
VH: QVQLQESGPGLVKPSETLSLTCTVSGFSLTSYGIHWIRQPPGKGLEWLGVMWSGGITDFYAAFISRLTISRDTSKNQVSLKMSSVTAADTAVYYCARGSRYALDYWGQGTLVTVSS
VL: DIQMTQSPSSLSASVGDRVTITCRASQDISNYLNWYQQKPGKAPKLLIYYTSRLHSGVPSRFSGSGSGTDFTLTISSLQPEDFATYYCQQGNTLPPTFGGGTKLEIK
notes: also called BA
For B13, the EC50 in the assay with amyloid peptide AβpE3-42 [8] stood at 0.341 µg/mL; with amyloid peptide AβpE3-42 [5], 3.86 µg/mL.

B14: humanized NT4X-167 RHK/RKA (antibody, mouse IgG1, V domains shown)
VH: QVQLQESGPGLVKPSETLSLTCTVSGGSLTSYGIHWIRQPPGKGLEWLGVMWSGGITDFYAAFISRLTISRDTSKNQVSLKMSSVTAADTAVYYCARGSRYALDYWGQGTLVTVSS
VL: DIQMTQSPSSLSASVGDRVTITCRASQDISNYLNWYQQKPGKAPKLLIYYTSRLHSGVPSRFSGSGSGTDFTLTISSLQPEDFATYYCQQGNTLPPTFGGGTKLEIK
In the case of B14, the binding result in the assay with amyloid peptide AβpE3-42 [1] is “binds”.
